{
  "source": "paper PMC9911869",
  "target": "recombinant pullulanase from Manihot esculenta Crantz (rMePUL), mature form without the transit peptide (Manihot esculenta Crantz (cassava))",
  "assay": "SEC; purified rMePUL on an MAbPac SEC-1 column (4 x 300 mm), 25 mM phosphate buffer pH 6.8 with 300 mM NaCl, 0.2 mL/min, 30°C, A280; calibrated with Bio-Rad gel filtration standards; monomer and dimer peaks",
  "data": [
    {"substance": "recombinant pullulanase from Manihot esculenta Crantz (rMePUL), mature form without the transit peptide (enzyme)", "values": [
      {"measurement": "stoichiometry N", "value": 2}
    ]}
  ]
}
